Drawing on patent US20170343560A1, this text covers OD 405 nm and signal (RU) for eleven substances.

Assay [1] addresses bispecific effector function silent anti-ANG2/VEGF antibody. Nature of the assay: bridging ELISA (Ex. 2), ANG2 bridges Bi-drug and Dig-drug; ANG2 0.391 ng/mL in cynomolgus pool plasma; cut off 0.05.
For assay [2] the target is unchanged. Briefly: bridging ELISA (Ex. 2), ANG2 bridges Bi-drug and Dig-drug; ANG2 1.56 ng/mL in cynomolgus pool plasma; cut off 0.05. On the technique in general: In an ELISA, binding on a coated surface is turned into a signal by an enzyme label.
Assay [3] shares this target. Briefly: bridging ELISA (Ex. 2), ANG2 bridges Bi-drug and Dig-drug; ANG2 100 ng/mL in cynomolgus pool plasma; cut off 0.05.
The target is the same in assay [4]. Briefly: bridging ELISA (Ex. 2), ANG2 bridges Bi-drug and Dig-drug; ANG2 0.0489 ng/mL in cynomolgus pool plasma; cut off 0.05.
For assay [5] the target is unchanged. Nature of the assay: bridging ELISA (Ex. 2), ANG2 bridges Bi-drug and Dig-drug; ANG2 3.13 ng/mL in cynomolgus pool plasma; cut off 0.05.
Assay [6] shares this target. Nature of the assay: bridging ELISA (Ex. 2), ANG2 bridges Bi-drug and Dig-drug; ANG2 6.25 ng/mL in cynomolgus pool plasma; cut off 0.05.
Assay [7] shares this target. Nature of the assay: bridging ELISA (Ex. 2), ANG2 bridges Bi-drug and Dig-drug; ANG2 50 ng/mL in cynomolgus pool plasma; cut off 0.05.
For assay [8] the target is unchanged. Briefly: bridging ELISA (Ex. 2), ANG2 bridges Bi-drug and Dig-drug; ANG2 12.5 ng/mL in cynomolgus pool plasma; cut off 0.05.
Assay [9] has the same target. Nature of the assay: bridging ELISA (Ex. 2), ANG2 bridges Bi-drug and Dig-drug; ANG2 25 ng/mL in cynomolgus pool plasma; cut off 0.05.
For assay [10] the target is unchanged. Briefly: bridging ELISA (Ex. 2), ANG2 bridges Bi-drug and Dig-drug; ANG2 0.195 ng/mL in cynomolgus pool plasma; cut off 0.05.
The target is the same in assay [11]. Nature of the assay: bridging ELISA (Ex. 2), ANG2 bridges Bi-drug and Dig-drug; ANG2 0.0977 ng/mL in cynomolgus pool plasma; cut off 0.05.
For assay [12] the target is unchanged. Briefly: bridging ELISA (Ex. 2), ANG2 bridges Bi-drug and Dig-drug; ANG2 0.781 ng/mL in cynomolgus pool plasma; cut off 0.05.
Assay [13] shares this target. Nature of the assay: bridging ELISA (Ex. 2), VEGF bridges Bi-drug and Dig-drug; VEGF 12.5 ng/mL in cynomolgus pool plasma.
Assay [14] shares this target. Briefly: bridging ELISA (Ex. 2), VEGF bridges Bi-drug and Dig-drug; VEGF 1.56 ng/mL in cynomolgus pool plasma.
For assay [15] the target is unchanged. Nature of the assay: bridging ELISA (Ex. 2), VEGF bridges Bi-drug and Dig-drug; VEGF 3.13 ng/mL in cynomolgus pool plasma.
Assay [16] shares this target. Nature of the assay: bridging ELISA (Ex. 2), VEGF bridges Bi-drug and Dig-drug; VEGF 0.781 ng/mL in cynomolgus pool plasma.
Assay [17] has the same target. Nature of the assay: bridging ELISA (Ex. 2), VEGF bridges Bi-drug and Dig-drug; VEGF 0.0489 ng/mL in cynomolgus pool plasma; cut off 0.05.
Assay [18] shares this target. Nature of the assay: bridging ELISA (Ex. 2), VEGF bridges Bi-drug and Dig-drug; VEGF 0.195 ng/mL in cynomolgus pool plasma; cut off 0.05.
The target is the same in assay [19]. Nature of the assay: bridging ELISA (Ex. 2), VEGF bridges Bi-drug and Dig-drug; VEGF 25 ng/mL in cynomolgus pool plasma.
Assay [20] shares this target. Briefly: bridging ELISA (Ex. 2), VEGF bridges Bi-drug and Dig-drug; VEGF 100 ng/mL in cynomolgus pool plasma.
The target is the same in assay [21]. Nature of the assay: bridging ELISA (Ex. 2), VEGF bridges Bi-drug and Dig-drug; VEGF 50 ng/mL in cynomolgus pool plasma.
The target is the same in assay [22]. Nature of the assay: bridging ELISA (Ex. 2), VEGF bridges Bi-drug and Dig-drug; VEGF 0.391 ng/mL in cynomolgus pool plasma.
For assay [23] the target is unchanged. Nature of the assay: bridging ELISA (Ex. 2), VEGF bridges Bi-drug and Dig-drug; VEGF 6.25 ng/mL in cynomolgus pool plasma.
Assay [24] deals with human Fcgamma receptor I (human) (UniProt P12314). Nature of the assay: SPR BIAcore T100, Bi-huFcyRI on SA-CAP chip, antibody 10 ug/mL injected 60 s, reference-subtracted response after injection.
Sequence of UniProt P12314 (P12314 16-288 limits assumed): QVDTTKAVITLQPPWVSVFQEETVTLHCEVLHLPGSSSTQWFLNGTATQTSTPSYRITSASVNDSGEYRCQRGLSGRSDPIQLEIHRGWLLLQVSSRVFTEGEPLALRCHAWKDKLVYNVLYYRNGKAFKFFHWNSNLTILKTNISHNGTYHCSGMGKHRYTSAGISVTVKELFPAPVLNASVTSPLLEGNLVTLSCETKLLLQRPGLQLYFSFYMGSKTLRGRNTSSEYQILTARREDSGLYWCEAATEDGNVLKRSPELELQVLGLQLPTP

Sequence of VEGF (P15692 other isoform, or with tags, fused parts or gaps limits assumed): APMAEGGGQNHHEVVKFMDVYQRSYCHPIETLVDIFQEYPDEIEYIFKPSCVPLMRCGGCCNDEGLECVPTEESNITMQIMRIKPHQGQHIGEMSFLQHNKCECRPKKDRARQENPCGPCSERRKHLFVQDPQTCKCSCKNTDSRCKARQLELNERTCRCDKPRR
Sequence of ANG2 (O15123 19-496 limits assumed): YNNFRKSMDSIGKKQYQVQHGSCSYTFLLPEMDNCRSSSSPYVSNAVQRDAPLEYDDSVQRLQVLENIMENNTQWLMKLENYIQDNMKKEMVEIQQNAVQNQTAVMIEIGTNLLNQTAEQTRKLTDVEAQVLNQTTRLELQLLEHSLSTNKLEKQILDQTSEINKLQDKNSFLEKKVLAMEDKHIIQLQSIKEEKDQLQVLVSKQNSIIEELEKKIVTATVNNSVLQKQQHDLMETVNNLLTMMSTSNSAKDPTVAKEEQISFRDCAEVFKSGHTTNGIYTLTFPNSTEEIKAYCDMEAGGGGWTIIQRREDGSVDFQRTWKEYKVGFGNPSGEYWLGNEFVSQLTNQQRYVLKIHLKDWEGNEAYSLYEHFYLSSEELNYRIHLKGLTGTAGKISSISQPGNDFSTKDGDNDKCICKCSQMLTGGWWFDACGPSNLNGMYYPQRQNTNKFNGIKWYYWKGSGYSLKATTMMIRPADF

Take “ANG2 (from UniProt O15123 19-496) (ligand)”: the OD 405 nm in assay [1] was found to be 0.022 OD 405 nm; in [2] it was 0.024 OD 405 nm; in assay [3], 0.14 OD 405 nm; in assay [4], 0.022 OD 405 nm; in assay [5], 0.028 OD 405 nm; in assay [6], 0.031 OD 405 nm. For the same substance, the OD 405 nm in assay [7] was 0.076 OD 405 nm; in assay [8] it was 0.038 OD 405 nm; in assay [9], 0.052 OD 405 nm; in [10] it was 0.024 OD 405 nm; in assay [11], 0.022 OD 405 nm; in assay [12] it was 0.024 OD 405 nm.

With “VEGF (from UniProt P15692 27-191) (ligand)”, the OD 405 nm came to 0.921 OD 405 nm in assay [13]; 0.138 OD 405 nm in assay [14]; 0.274 OD 405 nm in assay [15]; 0.083 OD 405 nm in [16]; 0.025 OD 405 nm in assay [17]; 0.039 OD 405 nm in assay [18]. Also, the OD 405 nm is 1.69 OD 405 nm in [19]; 2.83 OD 405 nm in assay [20]; 2.34 OD 405 nm in [21]; 0.058 OD 405 nm in [22]; 0.51 OD 405 nm in assay [23].

Turning to human IgG1 (antibody), the signal (RU) in [24] was 139 RU.

Regarding “human IgG1 P329G L234A L235A I253A H310A H434A mutations (antibody)”, the signal (RU) in [24] is 1.8 RU.

Substance “human IgG1 with L234A L235A mutations (antibody)” displayed a signal (RU) in [24] of 4 RU.

Take “human IgG1 with P329G L243A L235A mutations (antibody)”: the signal (RU) in [24] was 1.5 RU.

Substance human IgG4 (antibody) yielded a signal (RU) in assay [24] of 20.2 RU.

In turn, “human IgG4 with S228P L235E mutations (antibody)” registered a signal (RU) in [24] of 2.6 RU.

In [24], “human IgM (from UniProt P01871 1-453) (antibody)” came in with a signal (RU) of 5.2 RU.

mouse IgG1 (antibody) yielded a signal (RU) in [24] of 3 RU.

With mouse IgG2a (antibody), the signal (RU) in [24] is 31.1 RU.
